# Results reported in patent publication US20250145711A1 (Janssen / Centocor, published 2025).
# Substitutions are numbered along the chain they refer to.
# B1: CD3B2035 (scFv)
# scFv: QVQLVQSGAEVKKPGSSVKVSCKASGYTFTRSTMHWVKQAPGQGLEWMGYINPSSAYTNYNQKFQGRVTLTADKSTSTAYMELSSLRSEDTAVYYCASPQVHYDYNGFPYWGQGTLVTVSSGGSEGKSSGSGSESKSTGGSEIVLTQSPATLSASPGERVTLSCSASSSVSYMNWYQQKPGQAPRRWIYDSSKLASGVPARFSGSGSGRDYTLTISSLEPEDFAVYYCQQWSRNPPTFGGGTKVEIK
# B2: CD3B2029 (scFv)
# scFv: B1 scFv with M48I, A183S
# B3: CD3B2034 (scFv)
# scFv: B1 scFv with A183S
# B4: CD3B2068 (scFv)
# scFv: B1 scFv with K38R, W187L
# B5: CD3B2070 (scFv)
# scFv: B1 scFv with K38R, Q182T, A183S, W187L
# B6: CD3B2061 (scFv)
# scFv: B1 scFv with M48I, N61A, Q182T
# B7: CD3B2084 (scFv)
# scFv: B1 scFv with K38R, N61A, W187L
# B8: CD3B2076 (scFv)
# scFv: B1 scFv with K38R, M48I, N61A, W187L
# B9: CD3B2041 (scFv)
# scFv: B1 scFv with K38R, M48I, Q182T
# B10: CD3B2031 (scFv)
# scFv: B1 scFv with Q182T
# B11: CD3B2038 (scFv)
# scFv: B1 scFv with N61A, Q182T, W187L
# B12: CD3B2042 (scFv)
# scFv: B1 scFv with K38R, M48I, Q182T, A183S, W187L
# B13: CD3B2066 (scFv)
# scFv: B1 scFv with K38R, Q182T, A183S
# B14: CD3B2074 (scFv)
# scFv: B1 scFv with K38R, M48I, N61A, Q182T, A183S
# B15: CD3B2067 (scFv)
# scFv: B1 scFv with K38R, A183S, W187L
# B16: CD3B2075 (scFv)
# scFv: B1 scFv with K38R, M48I, N61A, A183S, W187L
# B17: CD3B2083 (scFv)
# scFv: B1 scFv with K38R, N61A, A183S, W187L
# B18: CD3B2037 (scFv)
# scFv: B1 scFv with N61A, Q182T, A183S, W187L
# B19: CD3B2059 (scFv)
# scFv: B1 scFv with M48I, N61A, A183S, W187L
# B20: CD3B2039 (scFv)
# scFv: B1 scFv with N61A, A183S
# B21: CD3B2062 (scFv)
# scFv: B1 scFv with M48I, N61A, Q182T, A183S, W187L
# B22: CD3B2060 (scFv)
# scFv: B1 scFv with M48I, N61A, W187L
# B23: CD3B2033 (scFv)
# scFv: B1 scFv with Q182T, W187L
# Target: T1, TRCW5 antigen (CD3δε-Fc-Avi) (biotinylated (site not stated))
# T1 construct: also called recombinant CD3
# Test: ELISA after heat
# T1 sequence (chain, as listed by the source mutant limits assumed): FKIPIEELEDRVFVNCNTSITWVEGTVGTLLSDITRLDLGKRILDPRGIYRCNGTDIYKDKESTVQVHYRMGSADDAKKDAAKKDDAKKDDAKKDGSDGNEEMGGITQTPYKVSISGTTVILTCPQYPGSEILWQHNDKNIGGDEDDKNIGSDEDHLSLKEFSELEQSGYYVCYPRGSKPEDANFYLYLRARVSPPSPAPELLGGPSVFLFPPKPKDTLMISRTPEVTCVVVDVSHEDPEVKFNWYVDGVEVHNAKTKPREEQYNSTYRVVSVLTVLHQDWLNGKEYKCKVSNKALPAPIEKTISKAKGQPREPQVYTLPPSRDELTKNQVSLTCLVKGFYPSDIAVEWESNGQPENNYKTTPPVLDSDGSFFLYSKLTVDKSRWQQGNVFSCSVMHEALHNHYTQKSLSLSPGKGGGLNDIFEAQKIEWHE
Binder,% Retained 55° C.,% Retained 60° C.,% Retained 65° C.
B1,110%,112%,47%
B2,100%,97%,29%
B3,103%,103%,38%
B4,103%,88%,10%
B5,107%,82%,6%
B6,116%,107%,9%
B7,108%,91%,9%
B8,100%,82%,7%
B9,104%,97%,16%
B10,108%,104%,36%
B11,105%,98%,22%
B12,96%,83%,2%
B13,109%,109%,11%
B14,104%,101%,6%
B15,98%,63%,5%
B16,103%,87%,6%
B17,104%,84%,4%
B18,102%,103%,23%
B19,112%,98%,13%
B20,111%,103%,44%
B21,110%,102%,14%
B22,107%,100%,21%
B23,100%,84%,11%

# Target: T2, CD3 on primary human pan T cells (human, UniProt P07766 23-207)
# T2 construct: on cells it stands in the TCR/CD3 complex; also called Pan T-cells (CD3-positive); endogenous CD3
# Test: flow cytometry, pan T-cells
# Method: ELISA assays for binding to recombinant CD3 (TRCW5, SEQ ID NO: 39) were performed as above. Cell binding was performed using primary human T cell and Jurkat cells by flow cytometry. Briefly, E. coli expressed anti CD3 ScFv supernatants, either at room temperature, or 55° C., 60° C. or 65° C. heat treated samples.
# Pan T-cells (CD3-positive) and Jurkat-CD3-negative cells were prepared by staining Jurkat-CD3-negative cells with CFSE while keeping pan T-cells unstained. Jurkat-CD3-negative cell suspensions were resuspended at 20 million cells per each 50 mL conical tube. Cells were harvested by centrifugation at 400×g for 5 minutes and resuspended in DPBS followed by washing 2× in DPBS. Cells were stained with 1:25,000 dilution for a final dye concentration of 0.02 uM CFSE (2 uL of staining solution to 50 mL of cell suspension). Cells were incubated for 10 minutes at room temperature and centrifuged for 5 minutes at 400×g. After removal of supernatant, 3 mL of HI-FBS were added to the cell pellet, mixed and centrifuged for 5 min at 400×g. Supernatant was removed and cells were resuspended in BD stain buffer at 2×10\hat{ }6 cells/mL and incubated on ice or 4 C protected from light. Human pan T cells were thawed at 37 C and transferred gently into a conical tube containing 15 mL of warm or RT culture media (RPMI+10% FBS). […] Cells were harvested by centrifugation at 400×g for 5 min and resuspended in culture media (RPMI+10% HI-FBS). Pan T-cells (without staining) were prepared at 2×10\hat{ }6 cells/mL in flow staining buffer. Equal volumes of CFSE stained Jurkat-CD3-negative cells and unstained T-cells (CD3-positive) cells were mixed and plated 50 uL/well into assay plates. 50 uL/well neat bacterial supernatant samples and control sample (CD3W36 ScFv) were added to each well and plates were incubated 1 hr at 4 C or. Cells were harvested by centrifugation at 400×g for 4 min and 150 uL staining buffer were added to all wells, followed by centrifugation at 400×g for 4 min to pellet cells. To each well, 150 uL staining buffer were added followed by centrifugation at 400×g for 4 minutes to pellet cells.
# T2 sequence (P07766 23-207 limits assumed): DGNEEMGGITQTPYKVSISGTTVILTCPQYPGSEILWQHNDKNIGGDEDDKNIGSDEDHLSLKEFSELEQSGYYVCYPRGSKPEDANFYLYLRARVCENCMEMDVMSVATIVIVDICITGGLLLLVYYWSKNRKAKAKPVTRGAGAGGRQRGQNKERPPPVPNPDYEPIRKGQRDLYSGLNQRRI
Binder,"% Binding retained on T-cells, 55° C.","% Binding retained on T-cells, 60° C.","% Binding retained on T-cells, 65° C.","% Binding retained on T-cells, RT"
B1,1.06 fraction,1.14 fraction,0.455 fraction,1 fraction
B2,1.06 fraction,1.08 fraction,0.329 fraction,1 fraction
B3,0.866 fraction,0.784 fraction,0.387 fraction,1 fraction
B9,1.06 fraction,1.11 fraction,0.447 fraction,1 fraction
B10,1.12 fraction,1.2 fraction,0.543 fraction,1 fraction
B11,1.03 fraction,1.1 fraction,0.279 fraction,1 fraction
B12,0.993 fraction,0.935 fraction,0.0842 fraction,1 fraction
B18,1.07 fraction,0.986 fraction,0.061 fraction,1 fraction
B20,1.3 fraction,1 fraction,0.609 fraction,1 fraction
B23,1.07 fraction,1 fraction,0.295 fraction,1 fraction
